This note sets out measurements from US20240141069A1 (SHANGHAI JEMINCARE PHARMACEUTICAL, published 2024).

Broadly, the Kd is the equilibrium constant for the complex coming apart. For orientation: EC50 means the concentration giving half of the maximal effect. The EC50 (read off the curve) is the concentration giving half of the maximal effect.

Assay [1] deals with T1, mouse MASP-2 mMASP2-D456 (mouse, UniProt Q91WP0 287-685).
T1 construct: Made by the same method as hMASP2-D456
As to the kind of experiment: Octet RED96e BLI, antibody captured on AHC sensor, antigen in solution. The method, then: (§1) Affinities of candidate antibodies JYB1931A63 and JYB1931A13 to human hMASP2-D456 (KACTUS, batch number: 080203), cynomolgus monkey cMASP2-D456 (KACTUS, batch number: 030301), and mouse mMASP2-D456 (KACTUS, batch number: 030401) were measured by Octet RED96e (Fortebio). The antigen and antibody were diluted with 1×PBST (1×PBS: Sangon, B548117-0500; 0.02% Tween 20: sigma-aldrich, P1379) at a concentration of 30 nM for the antigen and a concentration of 5 μg/mL for the antibody.
First, the sample was added to a 96-well plate (Greiner bio-one, 655209) with a system of 200 μL/well. Then, software parameters were set, the temperature of the plate was set to 30° C., and the frequency for collecting standard dynamic signals was 5.0 Hz. Next, an AHC sensor (Fortebio, article number: 18-0015) was pre-wet with 1×PBST for 10 minutes, and then data were acquired. […]
(§2) A binding rate (Ka) and a dissociation rate (Kd) in a 1:1 antigen-antibody binding manner were measured by Fortebio's Data Analysis 12.0 software to calculate an equilibrium dissociation constant (KD) of the antibody.

Assay [2] deals with T2, recombinant human MASP-2 protein hMASP2-D456 (human, UniProt O00187 287-686). Nature of the assay: Octet RED96e BLI, antibody captured on AHC sensor, antigen 30 nM, 1:1 fit. As for the experimental part: as §1
T2 sequence (O00187 other isoform, or with tags, fused parts or gaps limits assumed): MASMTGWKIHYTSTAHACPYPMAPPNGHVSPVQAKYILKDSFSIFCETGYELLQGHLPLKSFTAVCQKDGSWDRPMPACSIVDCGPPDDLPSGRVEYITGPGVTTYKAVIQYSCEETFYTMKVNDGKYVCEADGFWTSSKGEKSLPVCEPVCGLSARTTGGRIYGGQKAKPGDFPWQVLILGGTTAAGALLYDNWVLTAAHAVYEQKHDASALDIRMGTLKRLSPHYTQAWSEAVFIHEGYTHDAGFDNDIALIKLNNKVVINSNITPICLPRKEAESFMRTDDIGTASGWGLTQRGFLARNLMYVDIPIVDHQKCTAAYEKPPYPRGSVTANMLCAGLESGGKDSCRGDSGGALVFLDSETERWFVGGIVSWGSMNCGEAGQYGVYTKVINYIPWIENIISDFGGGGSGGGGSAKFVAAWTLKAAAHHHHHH
(§3) First, the sample was added to a 96-well plate (Greiner bio-one, 655209) with a system of 200 μL/well. Then, software parameters were set, the temperature of the plate was set to 30° C., and the frequency for collecting standard dynamic signals was 5.0 Hz. Next, an AHC sensor (Fortebio, article number: 18-0015) was pre-wet with 1×PBST for 10 minutes, and then data were acquired. Each cycle included the following steps: 1) immersing the sensor in a buffer solution for 60 seconds; 2) detecting whether the antigen had non-specific binding with the sensor; 3) regenerating the sensor with 10 mM pH 1.7 glycine solution; 4) immersing the sensor in the buffer solution for 60 seconds; 5) immobilizing the antibody on the sensor for 60 seconds; 6) immersing the sensor in the buffer solution for 180 seconds; 7) binding the antigen and the antibody for 180 seconds; 8) dissociating the antigen and the antibody for 5 minutes; and 9) regenerating the sensor.
as §2
(In general: In BLI a coated tip is dipped into the sample, and binding shifts an interference pattern.)

Assay [3] concerns the target T3, cynomolgus monkey MASP-2 cMASP2-D456 (cynomolgus monkey).
T3 construct: Made by the same method as hMASP2-D456
Described as above. As for the experimental part:
as §1, §3, §2

The target of assay [4] is T2, recombinant human MASP-2 protein …. As to the kind of experiment: ELISA on plate-coated hMASP2-D456, detection with HRP secondary antibody, OD450/630nm; unit taken from the axis 'Antibody nM (Ig)'. As for the experimental part: (§4) The hMASP2-D456 was diluted to 1.0 μg/mL and 0.5 μg/mL with a carbonate buffer solution (CBS), each added to a high binding transparent polystyrene 96-well plate (Nunc) with 100 μL/well and wrapped overnight at 4° C. The next day, the ELISA plate was washed twice on an automatic plate washer with a washing buffer (PBS+0.05% Tween 20 (sigma)). 300 μL of blocking buffer (PBS+0.05% Tween 20 (sigma)+1% BSA) was added to each well, and the ELISA plate was sealed at room temperature for 1 hour. Then the ELISA plate was washed twice with the washing buffer on the automatic plate washer, and the monoclonal antibody was diluted with the blocking buffer to 8 gradients. The monoclonal antibody was sequentially added to each well of the ELISA plate and incubated at room temperature for 1 hour, and then the plate was washed 3 times according to the above method. 100 μL of goat anti-mouse HRP (Sigma, article number: M4280) or rabbit anti-rat Fc-HRP (Sigma, article number: A5795) diluted at 1:5000 in the blocking buffer was added to each well. Incubation was performed at room temperature for 1 hour, and then the plate was washed 3 times according to the above method. […] The plate was read at 450 nm on a Thermo Multiscan FC. Graphs were drawn with Graphpad and EC50 was calculated. […]

Assay [5] addresses T3, cynomolgus monkey MASP-2 cMASP2-D456. As to the kind of experiment: ELISA on plate-coated cMASP2-D456, detection with HRP secondary antibody, OD450/630nm. As for the experimental part:
as §4, with “The mouse mMASP2-D456 and cynomolgus monkey cMASP2-D456 were diluted to” for “The hMASP2-D456 was diluted to”, “carbonate buffer solution, each added” for “carbonate buffer solution (CBS), each added”, “monoclonal antibody 50A6 was diluted” for “monoclonal antibody was diluted”, “buffer to 15.0 μg/mL at 11 gradients. The” for “buffer to 8 gradients. The”, “at 1:5000 with the blocking” for “at 1:5000 in the blocking”
A general note: An ELISA detects its analyte on a solid surface through an enzyme-linked reagent.

Assay [6] has the same target. Nature of the assay: ELISA on plate-coated cMASP2-D456, detection with HRP secondary antibody, OD450/630nm; unit taken from the axis 'Antibody pM (Ig)'. As for the experimental part: as §4, with “The mouse mMASP2-D456 and cynomolgus monkey cMASP2-D456 were diluted to” for “The hMASP2-D456 was diluted to”, “carbonate buffer solution, each added” for “carbonate buffer solution (CBS), each added”, “monoclonal antibody 50A6 was diluted” for “monoclonal antibody was diluted”, “buffer to 15.0 μg/mL at 11 gradients. The” for “buffer to 8 gradients. The”, “at 1:5000 with the blocking” for “at 1:5000 in the blocking”

Assay [7] has as its target T1, mouse MASP-2 mMASP2-D456. Nature of the assay: ELISA on plate-coated mMASP2-D456, OD450/630nm. The method, then: as §4, with “The mouse mMASP2-D456 and cynomolgus monkey cMASP2-D456 were diluted to” for “The hMASP2-D456 was diluted to”, “carbonate buffer solution, each added” for “carbonate buffer solution (CBS), each added”, “monoclonal antibody 50A6 was diluted” for “monoclonal antibody was diluted”, “buffer to 15.0 μg/mL at 11 gradients. The” for “buffer to 8 gradients. The”, “at 1:5000 with the blocking” for “at 1:5000 in the blocking”

For assay [8], the target named is T2, recombinant human MASP-2 protein …. Nature of the assay: ELISA on plate-coated hMASP2-D456, detection with HRP secondary antibody, OD450/630nm; unit taken from the axis 'Antibody pM (Ig)'. As for the experimental part: as §4

T3 sequence (chain, as listed by the source limits assumed): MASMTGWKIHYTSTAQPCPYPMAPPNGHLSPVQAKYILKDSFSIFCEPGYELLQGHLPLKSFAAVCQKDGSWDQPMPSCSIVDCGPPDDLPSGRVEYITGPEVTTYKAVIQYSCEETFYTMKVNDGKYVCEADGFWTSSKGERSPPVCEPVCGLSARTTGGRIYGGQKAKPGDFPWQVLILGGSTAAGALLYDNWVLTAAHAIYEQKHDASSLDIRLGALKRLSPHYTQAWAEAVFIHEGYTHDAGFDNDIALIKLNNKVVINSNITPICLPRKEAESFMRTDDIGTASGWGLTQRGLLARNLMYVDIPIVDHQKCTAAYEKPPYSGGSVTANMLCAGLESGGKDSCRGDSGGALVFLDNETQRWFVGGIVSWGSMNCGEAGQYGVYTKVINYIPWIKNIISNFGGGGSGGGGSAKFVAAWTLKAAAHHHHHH
T1 sequence (Q91WP0 other isoform, or with tags, fused parts or gaps limits assumed): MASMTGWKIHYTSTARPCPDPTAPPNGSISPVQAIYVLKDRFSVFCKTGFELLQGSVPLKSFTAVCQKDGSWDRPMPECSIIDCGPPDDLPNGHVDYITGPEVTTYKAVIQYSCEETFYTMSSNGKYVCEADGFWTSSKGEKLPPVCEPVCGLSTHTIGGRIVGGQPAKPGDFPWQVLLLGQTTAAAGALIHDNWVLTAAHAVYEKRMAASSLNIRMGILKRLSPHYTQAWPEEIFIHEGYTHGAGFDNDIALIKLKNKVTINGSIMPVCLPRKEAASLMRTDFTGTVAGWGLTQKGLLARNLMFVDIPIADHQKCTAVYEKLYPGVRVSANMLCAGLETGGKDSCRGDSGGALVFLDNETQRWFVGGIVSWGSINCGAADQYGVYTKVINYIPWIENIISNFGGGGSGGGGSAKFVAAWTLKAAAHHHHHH

B1: humanized anti-MASP-2 antibody JYB1931A63 (antibody, V domains shown)
VH: EVQLVESGGGLVQPGGSLRLSCAASGFTFNDYNMAWVRQAPGKGLEWVATILFDGSRTYYRDSVKGRFTISRDNAKNSLYLQMNSLRAEDTAVYYCSTESPYYSEGYYQGYFDYWGQGTLVTVSS
VL: EIVLTQSPATLSLSPGERATLSCRASQSVSTSIHWYQQKPGQAPRLLIKYASRSISGIPARFSGSGSGTDFTLTISSLEPEDFAVYYCQQSYSSLYTFGQGTKLEIK
notes: Humanized from 50A6 and expressed in ExpiCHO as a full antibody; captured on an AHC (anti-human Fc) sensor
B1: the binding result in assay [1] is reported as “no binding (tested: 30 nM antigen)”. Further, the figures for the Kd in assay [2] and in assay [3] were 0.335 nM and 1.31 nM, respectively.

B2: mouse anti-human MASP-2 monoclonal antibody 47A1 (antibody, V domains shown)
VH: DVQLQESGPGLVKPSQSLSLTCTVTGYSITSDYAWNWIRQFPGNKLEWMGYISYSGRTSYNPSLKSRISITRNTSTNQFFLQLNSVTTEDTATYFCARYWGDYWGQGTTLTVSS
VL: DIVMTQSQKFMSTSVGDRVSVTCKASQNVGSNVAWFQQKPGQSPKPLIYSASYRYSGVPDRFTGSGSGTDFTLTISNVQSEDLAEYFCHQYNTYPLTFGAGTKLELN
notes: Mouse hybridoma monoclonal antibody purified from serum-free culture and detected with anti-mouse HRP; the mouse constant regions are not; also called 47A1 antibody
Turning to B2, in assay [4], the EC50 amounted to 0.333 nM. The “EC50 (read off the curve)” value in assay [5] is about 0.6 nM.

B3: rat anti-human MASP-2 monoclonal antibody 50A6 (antibody, V domains shown)
VH: EVQLVESGGGLVQPGRSLSLSCAASGFTFNDYNMAWVRQTPKKGLEWVATILFDGSRTYYRDSVKGRFTISRENAKSTLYLQMDSLRSEDTATYYCSTESPYYSEGYYQGYFDYWGQGVMVTVSS
VL: NIVLTQSPATLSVTPGESVSLSCRASQSVSTSIHWYQQRSNESPRLLIKYASRSISGIPSRFSGSGSGTDFTLSINRVESEDFSIYYCQQSYSSLYTFGAGTKLELR
notes: Rat hybridoma monoclonal antibody purified from serum-free culture and detected with anti-rat Fc-HRP; the rat constant regions are not; also called 50A6 antibody
Take B3: the figures for the concentration giving a half-maximal response (EC50) in assay [6] and in assay [8] were 0.067 nM and 0.0933 nM, respectively. In assay [7], the binding result is “no binding”.

B4: humanized anti-MASP-2 antibody JYB1931A13 (antibody, V domains shown)
VH: QVQLQESGPGLVKPSQTLSLTCTVSGYSITSDYAWNWIRQPPGKGLEWIGYISYSGRTSYNPSLKSRVTISRDTSKNQFSLKLSSVTAADTAVYYCARYWGDYWGQGTLVTVSS
VL: DIQMTQSPSSLSASVGDRVTITCKASQNVGSNVAWFQQKPGKAPKPLIYSASYRYSGVPSRFSGSGSGTDFTLTISSLQPEDFATYFCHQYNTYPLTFGGGTKVEIK
notes: Humanized from 47A1 and expressed in ExpiCHO as a full antibody; captured on an AHC (anti-human Fc) sensor
For the molecule B4, the binding result in assay [1] is given as “no binding (tested: 30 nM antigen)”. Moreover, the figures for the Kd in assay [2] and in assay [3] were 1.17 nM and 0.305 nM, respectively.
